Experimental data taken from article PMC8011160, “GroEL protein of the Leptospira spp. interacts with host proteins and induces cytokines secretion on macrophages” (BMC Microbiology, 2021).

How the values were obtained:
Assay in all cases: ELISA; host protein coated on microtiter wells; recombinant protein varied from 0 to 2 μM; absorbance with BSA subtracted; apparent Kd from the half-maximal binding concentration (GraphPad Prism 6)
Settings in all cases: both partners purified
[1] = biological target: T1, fibrinogen (purified from human plasma) (human, UniProt P02671-2 20-644; P02675 31-491; P02679-2 27-437)
T1 construct: fibrinogen alpha chain, human; fibrinogen beta chain, human; fibrinogen gamma chain, human; source: bought: Sigma-Aldrich (purified from human plasma)
T1 sequence (looked up) 1: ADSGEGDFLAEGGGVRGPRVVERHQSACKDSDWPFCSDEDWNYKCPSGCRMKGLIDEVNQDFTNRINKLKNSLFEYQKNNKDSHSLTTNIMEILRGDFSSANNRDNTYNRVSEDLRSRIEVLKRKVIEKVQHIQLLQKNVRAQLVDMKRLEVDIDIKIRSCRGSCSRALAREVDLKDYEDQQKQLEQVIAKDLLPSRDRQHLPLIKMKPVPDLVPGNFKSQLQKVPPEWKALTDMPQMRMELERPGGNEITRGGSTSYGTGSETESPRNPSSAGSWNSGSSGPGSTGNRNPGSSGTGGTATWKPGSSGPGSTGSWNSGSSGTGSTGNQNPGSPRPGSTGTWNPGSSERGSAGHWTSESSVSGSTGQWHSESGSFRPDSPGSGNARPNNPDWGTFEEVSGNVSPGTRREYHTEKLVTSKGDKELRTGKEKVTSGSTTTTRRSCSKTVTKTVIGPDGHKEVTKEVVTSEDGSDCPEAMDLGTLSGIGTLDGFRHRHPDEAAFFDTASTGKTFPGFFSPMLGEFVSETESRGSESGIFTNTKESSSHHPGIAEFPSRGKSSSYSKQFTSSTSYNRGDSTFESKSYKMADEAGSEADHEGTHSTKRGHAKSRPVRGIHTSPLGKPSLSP
T1 sequence (looked up) 2: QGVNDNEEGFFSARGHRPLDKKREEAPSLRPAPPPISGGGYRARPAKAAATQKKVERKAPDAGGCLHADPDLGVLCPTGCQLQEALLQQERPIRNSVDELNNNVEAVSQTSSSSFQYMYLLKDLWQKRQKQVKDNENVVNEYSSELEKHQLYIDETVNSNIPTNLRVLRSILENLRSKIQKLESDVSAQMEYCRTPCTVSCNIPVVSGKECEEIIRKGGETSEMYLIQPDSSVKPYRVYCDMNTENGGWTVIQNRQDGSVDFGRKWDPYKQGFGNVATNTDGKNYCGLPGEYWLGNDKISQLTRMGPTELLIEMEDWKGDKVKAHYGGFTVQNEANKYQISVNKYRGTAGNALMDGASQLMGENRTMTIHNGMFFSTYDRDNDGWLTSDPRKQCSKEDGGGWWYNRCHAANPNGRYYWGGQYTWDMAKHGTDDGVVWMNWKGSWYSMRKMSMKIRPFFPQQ
T1 sequence (looked up) 3: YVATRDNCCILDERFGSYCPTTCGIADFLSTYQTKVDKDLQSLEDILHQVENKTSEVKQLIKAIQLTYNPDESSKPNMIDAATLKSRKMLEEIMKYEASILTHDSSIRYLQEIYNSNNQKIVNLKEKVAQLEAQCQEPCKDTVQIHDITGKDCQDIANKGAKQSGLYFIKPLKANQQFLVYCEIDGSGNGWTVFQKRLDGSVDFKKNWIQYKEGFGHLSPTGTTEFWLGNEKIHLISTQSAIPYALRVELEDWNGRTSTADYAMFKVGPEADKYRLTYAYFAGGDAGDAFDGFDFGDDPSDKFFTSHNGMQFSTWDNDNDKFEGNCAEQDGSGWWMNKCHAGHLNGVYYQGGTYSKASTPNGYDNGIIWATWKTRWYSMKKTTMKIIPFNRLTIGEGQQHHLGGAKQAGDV

[2] = biological target: T2, collagen Type I (purified from rat tail) (rat, UniProt P02454 152-1207; P02466 86-1125)
T2 construct: collagen type I alpha 1 chain, rat; collagen type I alpha 2 chain, rat; also called collagen I; source: bought: Sigma-Aldrich (purified from rat tail)
T2 sequence (P02454 152-1207, chain 1 of 2): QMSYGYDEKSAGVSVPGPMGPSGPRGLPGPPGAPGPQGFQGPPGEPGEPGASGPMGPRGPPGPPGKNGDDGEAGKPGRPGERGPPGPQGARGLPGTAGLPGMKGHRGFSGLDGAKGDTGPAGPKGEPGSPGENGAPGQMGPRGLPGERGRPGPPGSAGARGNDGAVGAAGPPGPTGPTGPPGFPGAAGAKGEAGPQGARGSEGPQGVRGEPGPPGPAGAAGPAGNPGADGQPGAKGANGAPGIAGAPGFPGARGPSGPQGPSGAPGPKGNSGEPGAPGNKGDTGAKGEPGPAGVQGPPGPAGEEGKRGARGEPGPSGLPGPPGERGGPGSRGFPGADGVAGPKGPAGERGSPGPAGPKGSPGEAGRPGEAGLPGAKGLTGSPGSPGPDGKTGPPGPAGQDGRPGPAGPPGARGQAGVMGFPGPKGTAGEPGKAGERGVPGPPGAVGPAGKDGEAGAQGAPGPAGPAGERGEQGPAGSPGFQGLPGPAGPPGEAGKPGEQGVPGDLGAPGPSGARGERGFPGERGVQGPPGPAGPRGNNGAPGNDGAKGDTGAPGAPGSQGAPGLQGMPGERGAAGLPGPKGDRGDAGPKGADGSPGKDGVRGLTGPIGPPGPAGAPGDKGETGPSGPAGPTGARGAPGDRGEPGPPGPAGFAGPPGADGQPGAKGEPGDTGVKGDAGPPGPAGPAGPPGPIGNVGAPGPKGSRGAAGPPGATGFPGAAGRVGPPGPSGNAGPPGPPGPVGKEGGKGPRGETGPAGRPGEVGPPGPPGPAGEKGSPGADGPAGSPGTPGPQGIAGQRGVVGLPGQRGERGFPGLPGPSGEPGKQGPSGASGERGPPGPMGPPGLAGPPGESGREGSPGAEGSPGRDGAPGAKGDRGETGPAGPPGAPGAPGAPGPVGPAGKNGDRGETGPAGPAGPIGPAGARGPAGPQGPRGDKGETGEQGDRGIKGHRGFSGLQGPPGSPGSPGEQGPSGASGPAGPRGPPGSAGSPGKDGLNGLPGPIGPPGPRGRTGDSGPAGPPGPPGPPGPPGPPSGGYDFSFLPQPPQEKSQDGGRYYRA
T2 sequence (P02466 86-1125, chain 2 of 2): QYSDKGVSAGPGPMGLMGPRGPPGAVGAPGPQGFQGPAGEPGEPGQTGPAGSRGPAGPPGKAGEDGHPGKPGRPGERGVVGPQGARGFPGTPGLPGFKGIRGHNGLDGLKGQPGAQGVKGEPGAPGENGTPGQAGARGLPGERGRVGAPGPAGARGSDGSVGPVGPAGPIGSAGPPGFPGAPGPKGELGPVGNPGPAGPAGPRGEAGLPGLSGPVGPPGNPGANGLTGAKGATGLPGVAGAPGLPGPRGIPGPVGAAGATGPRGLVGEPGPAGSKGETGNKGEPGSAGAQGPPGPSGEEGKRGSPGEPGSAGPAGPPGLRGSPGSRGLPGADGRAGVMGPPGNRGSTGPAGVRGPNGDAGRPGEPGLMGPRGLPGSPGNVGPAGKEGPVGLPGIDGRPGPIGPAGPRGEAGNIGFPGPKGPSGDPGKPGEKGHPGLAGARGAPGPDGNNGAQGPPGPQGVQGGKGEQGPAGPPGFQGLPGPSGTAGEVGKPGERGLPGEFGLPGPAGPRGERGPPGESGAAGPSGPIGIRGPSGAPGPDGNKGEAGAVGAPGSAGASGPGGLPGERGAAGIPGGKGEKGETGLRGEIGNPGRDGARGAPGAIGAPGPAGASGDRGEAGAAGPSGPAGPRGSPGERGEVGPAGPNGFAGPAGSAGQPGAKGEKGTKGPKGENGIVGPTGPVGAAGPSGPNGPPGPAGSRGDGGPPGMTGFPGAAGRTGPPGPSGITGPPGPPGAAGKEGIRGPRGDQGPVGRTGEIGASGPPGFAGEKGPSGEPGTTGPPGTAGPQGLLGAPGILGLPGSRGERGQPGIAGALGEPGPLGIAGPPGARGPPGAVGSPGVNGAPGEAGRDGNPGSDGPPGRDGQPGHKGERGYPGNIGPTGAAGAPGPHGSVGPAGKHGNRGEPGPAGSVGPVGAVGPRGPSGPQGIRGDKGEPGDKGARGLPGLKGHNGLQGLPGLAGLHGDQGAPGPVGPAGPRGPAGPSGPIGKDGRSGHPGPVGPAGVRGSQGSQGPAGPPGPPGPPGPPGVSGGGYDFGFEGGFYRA

[3] = biological target: T3, collagen Type IV (purified from basement membrane of Engelbreth-Holm-Swarm mouse sarcoma) (mouse, UniProt P02463 173-1669; P08122 184-1707)
T3 construct: collagen type IV alpha 1 chain, mouse; collagen type IV alpha 2 chain, mouse; also called collagen IV; source: bought: Sigma-Aldrich (purified from basement membrane of Engelbreth-Holm-Swarm mouse sarcoma)
T3 sequence (P02463 173-1669, chain 1 of 2): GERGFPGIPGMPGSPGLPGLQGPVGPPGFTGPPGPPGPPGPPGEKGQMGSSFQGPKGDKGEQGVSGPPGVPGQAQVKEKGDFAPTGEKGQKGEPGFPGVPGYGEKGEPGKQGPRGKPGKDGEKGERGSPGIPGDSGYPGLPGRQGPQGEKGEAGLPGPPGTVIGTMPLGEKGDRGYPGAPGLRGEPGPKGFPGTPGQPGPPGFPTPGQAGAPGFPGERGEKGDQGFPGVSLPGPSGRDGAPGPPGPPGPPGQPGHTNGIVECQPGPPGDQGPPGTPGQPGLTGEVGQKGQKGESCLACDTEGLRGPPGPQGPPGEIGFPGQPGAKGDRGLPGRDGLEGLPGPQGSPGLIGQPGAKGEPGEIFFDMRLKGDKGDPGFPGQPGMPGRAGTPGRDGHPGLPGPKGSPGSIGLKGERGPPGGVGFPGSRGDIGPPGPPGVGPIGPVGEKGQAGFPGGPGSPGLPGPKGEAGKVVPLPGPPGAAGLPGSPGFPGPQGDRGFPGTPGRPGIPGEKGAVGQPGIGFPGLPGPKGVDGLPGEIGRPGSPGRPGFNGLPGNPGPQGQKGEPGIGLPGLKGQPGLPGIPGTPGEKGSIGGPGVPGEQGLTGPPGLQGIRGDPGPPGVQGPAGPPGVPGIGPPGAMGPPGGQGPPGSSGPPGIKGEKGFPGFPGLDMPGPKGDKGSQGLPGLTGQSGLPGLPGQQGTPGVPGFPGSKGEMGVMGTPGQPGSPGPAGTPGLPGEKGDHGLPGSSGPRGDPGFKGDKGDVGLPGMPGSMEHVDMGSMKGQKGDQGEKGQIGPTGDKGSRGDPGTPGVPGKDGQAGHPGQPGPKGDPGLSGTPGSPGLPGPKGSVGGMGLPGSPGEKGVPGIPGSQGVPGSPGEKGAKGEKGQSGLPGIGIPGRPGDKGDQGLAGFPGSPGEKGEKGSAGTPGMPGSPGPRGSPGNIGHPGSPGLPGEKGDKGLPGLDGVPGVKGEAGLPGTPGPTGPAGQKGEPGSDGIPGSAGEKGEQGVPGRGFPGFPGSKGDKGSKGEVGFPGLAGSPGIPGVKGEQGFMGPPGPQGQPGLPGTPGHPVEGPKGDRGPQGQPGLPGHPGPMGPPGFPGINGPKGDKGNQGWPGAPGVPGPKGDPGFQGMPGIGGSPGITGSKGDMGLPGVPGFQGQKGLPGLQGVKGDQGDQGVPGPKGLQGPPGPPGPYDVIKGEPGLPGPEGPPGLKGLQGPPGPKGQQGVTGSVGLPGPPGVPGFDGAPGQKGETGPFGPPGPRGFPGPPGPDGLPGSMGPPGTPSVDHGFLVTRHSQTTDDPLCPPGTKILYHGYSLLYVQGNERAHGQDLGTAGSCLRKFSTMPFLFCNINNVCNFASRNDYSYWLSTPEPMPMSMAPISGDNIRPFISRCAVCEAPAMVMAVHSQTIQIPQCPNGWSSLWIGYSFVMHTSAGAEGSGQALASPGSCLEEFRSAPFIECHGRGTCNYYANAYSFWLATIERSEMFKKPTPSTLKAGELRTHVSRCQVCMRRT
T3 sequence (P08122 184-1707, chain 2 of 2): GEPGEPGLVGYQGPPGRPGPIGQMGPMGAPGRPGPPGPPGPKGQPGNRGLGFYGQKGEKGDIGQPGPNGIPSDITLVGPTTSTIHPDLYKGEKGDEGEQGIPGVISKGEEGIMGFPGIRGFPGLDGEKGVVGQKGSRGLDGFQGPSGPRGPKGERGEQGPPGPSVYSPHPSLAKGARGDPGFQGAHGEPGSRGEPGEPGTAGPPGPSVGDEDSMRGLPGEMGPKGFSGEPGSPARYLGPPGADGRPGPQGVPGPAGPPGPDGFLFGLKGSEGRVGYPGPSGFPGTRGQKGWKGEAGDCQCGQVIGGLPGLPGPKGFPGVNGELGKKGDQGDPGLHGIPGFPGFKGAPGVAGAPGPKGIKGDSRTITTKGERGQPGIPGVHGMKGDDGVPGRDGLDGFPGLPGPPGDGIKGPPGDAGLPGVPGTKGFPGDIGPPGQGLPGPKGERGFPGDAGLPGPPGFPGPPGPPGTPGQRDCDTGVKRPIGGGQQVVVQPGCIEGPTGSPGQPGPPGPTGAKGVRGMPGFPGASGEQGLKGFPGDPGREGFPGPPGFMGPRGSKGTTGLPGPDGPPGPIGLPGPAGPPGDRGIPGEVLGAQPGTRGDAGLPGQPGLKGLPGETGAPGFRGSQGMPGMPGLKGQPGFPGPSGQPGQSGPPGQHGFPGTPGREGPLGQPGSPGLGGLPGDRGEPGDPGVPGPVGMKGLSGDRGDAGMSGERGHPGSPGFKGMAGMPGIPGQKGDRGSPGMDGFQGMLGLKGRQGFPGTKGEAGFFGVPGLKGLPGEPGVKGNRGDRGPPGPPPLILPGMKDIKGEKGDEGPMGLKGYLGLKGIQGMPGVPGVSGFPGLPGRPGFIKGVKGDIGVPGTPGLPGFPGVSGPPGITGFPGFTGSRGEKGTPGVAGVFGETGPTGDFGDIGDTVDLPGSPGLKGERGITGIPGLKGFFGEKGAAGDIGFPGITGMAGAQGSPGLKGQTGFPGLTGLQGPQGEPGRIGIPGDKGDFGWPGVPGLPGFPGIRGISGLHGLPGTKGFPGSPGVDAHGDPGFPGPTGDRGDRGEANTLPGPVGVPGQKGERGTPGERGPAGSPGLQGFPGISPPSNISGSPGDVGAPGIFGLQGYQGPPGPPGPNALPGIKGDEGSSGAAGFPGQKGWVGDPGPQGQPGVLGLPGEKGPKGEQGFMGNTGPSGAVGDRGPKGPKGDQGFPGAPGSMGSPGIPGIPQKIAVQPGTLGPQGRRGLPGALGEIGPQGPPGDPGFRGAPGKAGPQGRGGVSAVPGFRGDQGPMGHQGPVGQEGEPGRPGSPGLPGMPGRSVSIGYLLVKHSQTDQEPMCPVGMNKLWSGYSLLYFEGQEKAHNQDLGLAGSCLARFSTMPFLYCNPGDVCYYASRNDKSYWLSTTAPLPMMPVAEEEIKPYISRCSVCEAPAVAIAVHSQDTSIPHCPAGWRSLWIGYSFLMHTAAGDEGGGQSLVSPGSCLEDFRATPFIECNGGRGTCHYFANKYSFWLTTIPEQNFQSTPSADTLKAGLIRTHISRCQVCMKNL

[4] = biological target: T4, laminin (purified from basement membrane of Engelbreth-Holm-Swarm mouse sarcoma) (mouse, UniProt P19137 25-3083; P02469 22-1786; P02468 34-1607)
T4 construct: source: bought: Sigma-Aldrich (purified from basement membrane of Engelbreth-Holm-Swarm mouse sarcoma)

[5] = biological target: T5, elastin (purified from bovine neck ligament) (bovine, UniProt P04985 27-747)
T5 construct: elastin, bovine, purified from neck ligament; an insoluble protein; Insoluble material of tissue; used coated on wells (ELISA) and as a solid in the co-sedimentation; also called insoluble elastin; source: bought: Sigma-Aldrich (purified from bovine neck ligament)
T5 sequence (looked up): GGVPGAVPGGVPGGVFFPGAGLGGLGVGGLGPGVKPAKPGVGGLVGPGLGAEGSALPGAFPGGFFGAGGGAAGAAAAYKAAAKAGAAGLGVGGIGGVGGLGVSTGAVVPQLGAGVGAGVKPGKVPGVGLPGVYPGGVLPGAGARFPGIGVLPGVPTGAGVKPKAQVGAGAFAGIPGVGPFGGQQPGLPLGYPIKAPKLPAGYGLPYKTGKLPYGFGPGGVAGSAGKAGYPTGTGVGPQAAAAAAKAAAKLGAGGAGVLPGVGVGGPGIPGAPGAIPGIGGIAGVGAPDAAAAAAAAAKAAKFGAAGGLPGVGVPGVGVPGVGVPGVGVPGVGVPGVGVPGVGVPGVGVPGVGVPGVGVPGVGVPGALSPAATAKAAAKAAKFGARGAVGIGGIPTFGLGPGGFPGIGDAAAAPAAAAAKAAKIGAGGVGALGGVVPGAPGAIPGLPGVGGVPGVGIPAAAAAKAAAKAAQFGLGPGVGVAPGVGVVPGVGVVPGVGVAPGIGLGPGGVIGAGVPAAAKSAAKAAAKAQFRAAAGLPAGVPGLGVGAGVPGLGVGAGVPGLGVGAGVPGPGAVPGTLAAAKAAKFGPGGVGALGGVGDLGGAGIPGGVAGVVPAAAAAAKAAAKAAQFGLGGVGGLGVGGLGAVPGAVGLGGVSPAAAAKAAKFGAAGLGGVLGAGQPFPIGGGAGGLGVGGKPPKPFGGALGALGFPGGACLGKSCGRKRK

B1: truncated form of leptospiral immunoglobulin-like protein B (LigBC, amino acids 631-1156) (domain or fragment)
chain: AEIKNTSGSKGITNTLTPGSSEISAALGSIKSSKVILKVTPAQLISIAVTPINPSVAKGLIRQFKATGTYTDHSVQDVTALATWSSSNPGKAMVNNVTGSVTTVATGNTNIKATIDSISGSSVLNVTPALLTSIEITPTINSITHGLTKQFKATGIFSDKSTQNLTQLVTWISSDPSKIEIENTSGKKGIATASKLGSSNIKAVYKFIQSSPIPITVTDLKLKSITISPSSSSIAKGLTQQFKAIGTFIDGSEQEITNLVTWYSSKSDVAPINNAANAKGLATALSIGSSNISAIYNSISSNKINFNVSAATLDSIKINPVNNNIAKGLTQQYTALGVYSDSTIQDISDSVTWSSSNSDSISISNSTETKGKATALQIGNSKITATYNSISENIDITVSAATLSSISISPINTNINATVSKQFFAVGTYSDGTKADLTSSVTWSSSNKSQAKVSNASKTKGLVTGIASGNSIITATYGSVSGNTILTVNKTDTIAPTVQSVVSLSPTTIQVVYSESINNKEALDLS
notes: leptospiral immunoglobulin-like protein B (LigB), GenBank AAS69085, amino acids 631-1156, 56 kDa; half of immunoglobulin-like repeat 7 plus domains 8 to 12; source: LPS removed on Detoxi-Gel
Kd [1]: 4 ± 1 nM | Kd [2]: 8 ± 2 nM | Kd [3]: 7 ± 1 nM | Kd [4]: 41 ± 3 nM | Kd [5]: 4 ± 1 nM

B2: GroEL protein of Leptospira interrogans (recombinant, His-tagged) (natural protein, UniProt P61438 1-546, looked up)
chain: MAKDIEYNETARRKLLEGVNKLANAVKVTLGPKGRNVVIDKKFGAPTITKDGVTVAKEIELEDPLENMGAQMVKEVSTKTNDVAGDGTTTATILAQSIINEGLKNVTAGANPMSLKKGIDKAVTAAVESIQKRAVKIENKKDIANVASISANNDNTIGNLIADAMDKVGKDGVITVEEAKSIETTLDVVEGMQFDRGYISPYMVTDAESMVATLNDPFILIYDKKISSMKDLIHILEKVAQAGKPLVIISEEVEGEALATIVVNTLRKTISCVAVKAPGFGDRRKSMLEDIAILTGGQVISEDLGMKLENTTLQMLGRANKVTVDKENTTIIEGKGQTKEIQGRIGQIKKQIEDTTSEYDREKLQERLAKLAGGVAVIHVGAATEVEMKEKKARVEDALSATRAAVEEGIVPGGGLTLLKAQEAVGSLKLDGDEATGAKIIFRALEEPIRMITSNAGLEGSVIVEHAKAKKGNEGFNALTMVWEDMIQAGVVDPAKVVRSALQNAASIGSMILTTEVTITDKPDKDAPNPMAGMGGGGMGGMGGMM
notes: GroEL (chaperonin 60, HSP60) of L. interrogans serovar Copenhageni strain Fiocruz L1-130, GenBank AAS69936.1, 60 kDa; Cloned BamHI/HindIII into the vector pAE; as far as I recall pAE adds an N-terminal His6 tag; also called chaperonin 60; Cpn60; source: LPS removed on Detoxi-Gel
Kd [3]: 6 ± 1 nM | Kd [4]: 115 ± 12 nM | Kd [5]: 23 ± 3 nM
